# Measured values as given in publication PMC5483248, “The LacI family protein GlyR3 co-regulates the celC operon and manB in Clostridium thermocellum” (Biotechnology for Biofuels, 2017).
# “And” between values parts separate entries of the source, which are not always exact repeats. Equal values may be shown once.
# T1: GlyR3 (Acetivibrio thermocellus, UniProt A3DJ78)
# T1 construct: gene Cthe_2808; full gene cloned in pTXB1, expressed in E. coli T7 Express C2566, purified with the IMPACT (intein) system
# T1 sequence (A3DJ78 1-345): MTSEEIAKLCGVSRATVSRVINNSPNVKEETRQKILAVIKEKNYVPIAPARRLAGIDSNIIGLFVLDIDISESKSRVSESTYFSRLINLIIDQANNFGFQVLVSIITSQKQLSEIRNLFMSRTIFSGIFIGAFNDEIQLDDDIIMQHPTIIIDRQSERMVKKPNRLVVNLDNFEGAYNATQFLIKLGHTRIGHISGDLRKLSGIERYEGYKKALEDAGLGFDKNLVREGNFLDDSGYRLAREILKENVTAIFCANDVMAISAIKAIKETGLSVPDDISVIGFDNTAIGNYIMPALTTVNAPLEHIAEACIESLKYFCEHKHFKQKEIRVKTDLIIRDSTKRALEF
# T2: GlyR3 (Clostridium thermocellum) (UniProt Q9AL35)
# T2 sequence: T1 sequence (A3DJ78 1-345)
# T3: GlyR3 (Clostridium thermocellum, UniProt Q9AL35 1-345)
# T3 sequence: T1 sequence (A3DJ78 1-345)
# B1: celC 18-mer competitor (dsDNA)
# DNA 1: AATGAACGCGCGTACATT
# DNA 2: AATGTACGCGCGTTCATT
# B2: manB 18-mer competitor (dsDNA)
# DNA 1: AATGTAAACGGTGTCAAT
# DNA 2: ATTGACACCGTTTACATT
# How the values were obtained:
# GlyR3 [1] = molecular target: T1, GlyR3; assay: EMSA, release of GlyR3 from biotin-labelled celC operator DNA (ImageJ); type: binding; details: GlyR3 150 ng (387 nM); celC DNA 0.2 ng (0.156 nM); laminaribiose 70 μg (100 mM); effector, dissociates repressor from celC site
# [2] = molecular target: T2, GlyR3 (Clostridium thermocellum); assay: EMSA; details: LightShift Chemiluminescent EMSA kit, TBE gel; 0.2 ng biotin-DNA (0.156-0.204 nM), GlyR3 150 ng (387 nM) unless titrated; binding buffer salt, pH and …
# GlyR3 [3] = molecular target: T3, GlyR3; assay: EMSA; details: LightShift Chemiluminescent EMSA kit, TBE gel, 0.2 ng biotin-DNA (0.156-0.204 nM), GlyR3 150 ng (387 nM) unless titrated, binding buffer salt, pH and …
# GlyR3 [4] = molecular target: T3, GlyR3; assay: competition; 500 ng 18-mer reverses shift of celC probe; LightShift Chemiluminescent EMSA kit, TBE gel; 0.2 ng biotin-DNA (0.156-0.204 nM), GlyR3 150 ng (387 nM) unless titrated; binding buffer salt, pH and temperature not given; details: protein: recombinant; tags: expressed from pTXB1 (IMPACT intein system, NEB); chain copies: 2; label: unlabeled; blunt
# GlyR3 [5] = molecular target: T3, GlyR3; assay: competition; 500 ng 18-mer reverses shift of manB probe; LightShift Chemiluminescent EMSA kit, TBE gel; 0.2 ng biotin-DNA (0.156-0.204 nM), GlyR3 150 ng (387 nM) unless titrated; binding buffer salt, pH and temperature not given; details: protein: recombinant; tags: expressed from pTXB1 (IMPACT intein system, NEB); chain copies: 2; label: unlabeled; blunt
# [6] = 387 nM GlyR3, 50 mM laminaribiose
# [7] = 387 nM GlyR3, 100 mM laminaribiose
molecule,measurement,setting,value
OC[C@H]1O[C@@H](O[C@H]2[C@H](O)[C@@H](CO)OC(O)[C@@H]2O)[C@H](O)[C@@H](O)[C@@H]1O (stereo partly drawn) [laminaribiose],% celC DNA shifted at 100 mM laminaribiose,GlyR3 [1],67%
CCGAATAAAAACTGGACAGAGAAGAAGAAAACGTGATATAATTAAATTAGAATGAACGCGCGTACATTATTGAATAATCCAGTGTTAAATGGTTTCAGTTTACGATTTCAAATGTTTATATCCAATTTACATTTAAAAACATACAAAACATCAAAAGTATTTAATACCAATATTTAAAACACAATATTTCAGGAGGA (double strand) [celC EMSA fragment],binding,[2],binds
same,binding signal,[2],99 % shifted
TCGGTGAATGTTGAGGTTGACAAGGAAGGACTTTATGAAATATTCATCTGCTATGTGCAGCCTTACGACAAAAACAAAAAAGTGCAGTATCTTAATGTAAACGGTGTCAATCAGGGAGAAATAAGCTTTCCGTTTACTCTTAAATGGAGAGAGATTTCAGCAGGA (double strand) [manB EMSA fragment],binding,[2],binds more weakly
same,binding signal,[2],18 % shifted (2×) and 19 % shifted
TGAGCAAATCAATTGTAATATGAAGAAAAATATAGTAAGATATTAATAAAAGAATAAAATAATATATTGGTATAATATGTAAATCGGTTGCAGTAATGCTATTCCAATAAAAGATGAAAGATTTCCGTTAATTCATTGAAAGAAACGTTCTGCTGCA (double strand) [celT EMSA fragment],binding,[2],no binding
TGTTATCTTCGGTTAGCTCATCAAGGTAATCATAGAATATATTATAAAGAGTAACAAAGTAAATAAACTCAGGTGTATTTTCTTTATATAGAATTCTCATTTGCTCAAGAACTTTATCTTTAACATCCTGAACAGCAGTATCATCCTCCCA (double strand) [random control DNA fragment],binding,[2],no binding
celC EMSA fragment,binding signal,GlyR3 [3]; [6],82 % shifted
same,binding signal,GlyR3 [3]; [7],67 % shifted
same,binding signal,"GlyR3 [3]; 387 nM GlyR3, no laminaribiose",99 % shifted
manB EMSA fragment,binding signal,GlyR3 [3]; [6],18 % shifted
same,binding signal,GlyR3 [3]; [7],19 % shifted
same,binding signal,"GlyR3 [3]; 387 nM GlyR3, no laminaribiose",18 % shifted
B1,binding result,GlyR3 [4],binds
B2,binding result,GlyR3 [5],binds
